Measurements: US7951914B2, “Genetically modified cyclic-nucleotide controlled ion channels” (Forschungszentrum Julich GmbH, priority 2001, dated 2011)

B1: T537M: bovine α3 CNG channel with methionine in place of threonine T537 (SEQ ID NO 4) (protein, UniProt Q03041 1-663, looked up, variant T537M)
Cyclic nucleotide-gated …: MTEKANGVKSSPANNHNHHAPPAIKASGKDDHRASSRPQSAAADDTSSELQQLAEMDAPQQRRGGFRRIARLVGVLREWAYRNFREEEPRPDSFLERFRGPELHTVTTQQGDGKGDKDGEGKGTKKKFELFVLDPAGDWYYRWLFLIALPVLYNWCLLVARACFSDLQKGYYIVWLVLDYVSDVVYIADLFIRLRTGFLEQGLLVKDTKKLRDNYIHTMQFKLDVASIIPTDLIYFAVGIHNPEVRFNRLLHFARMFEFFDRTETRTSYPNIFRISNLILYILIIIHWNACIYYAISKSIGFGVDTWVYPNITDPEYGYLSREYIYCLYWSTLTLTTIGETPPPVKDEEYLFVIFDFLIGVLIFATIVGNVGSMISNMNATRAEFQAKIDAVKHYMQFRKVSKEMEAKVIRWFDYLWTNKKSVDEREVLKNLPAKLRAEIAINVHLSTLKKVRIFQDCEAGLLVELVLKLRPQVFSPGDYICRKGDIGKEMYIIKEGKLAVVADDGVTQYALLSAGSCFGEISILNIKGSKMGNRRMANIRSLGYSDLFCLSKDDLMEAVTEYPDAKRVLEERGREILMKEGLLDENEVAASMEVDVQEKLEQLETNMDTLYTRFARLLAEYTGAQQKLKQRITVLETKMKQNNEDDSLSDGMNSPEPPAEKP
B2: Wild Type: wild-type α3 subunit of the bovine CNG channel (SEQ ID NO 2) (protein)
chain: MTEKANGVKSSPANNHNHHAPPAIKASGKDDHRASSRPQSAAADDTSSELQQLAEMDAPQQRRGGFRRIARLVGVLREWAYRNFREEEPRPDSFLERFRGPELHTVTTQQGDGKGDKDGEGKGTKKKFELFVLDPAGDWYYRWLFLIALPVLYNWCLLVARACFSDLQKGYYIVWLVLDYVSDVVYIADLFIRLRTGFLEQGLLVKDTKKLRDNYIHTMQFKLDVASIIPTDLIYFAVGIHNPEVRFNRLLHFARMFEFFDRTETRTSYPNIFRISNLILYILIIIHWNACIYYAISKSIGFGVDTWVYPNITDPEYGYLSREYIYCLYWSTLTLTTIGETPPPVKDEEYLFVIFDFLIGVLIFATIVGNVGSMISNMNATRAEFQAKIDAVKHYMQFRKVSKEMEAKVIRWFDYLWTNKKSVDEREVLKNLPAKLRAEIAINVHLSTLKKVRIFQDCEAGLLVELVLKLRPQVFSPGDYICRKGDIGKEMYIIKEGKLAVVADDGVTQYALLSAGSCFGEISILNIKGSKMGNRRTANIRSLGYSDLFCLSKDDLMEAVTEYPDAKRVLEERGREILMKEGLLDENEVAASMEVDVQEKLEQLETNMDTLYTRFARLLAEYTGAQQKLKQRITVLETKMKQNNEDDSLSDGMNSPEPPAEKP
modifications: Bovine
B3: T537V: bovine α3 CNG channel with valine in place of threonine T537 (SEQ ID NO 6) (protein)
chain: MTEKANGVKSSPANNHNHHAPPAIKASGKDDHRASSRPQSAAADDTSSELQQLAEMDAPQQRRGGFRRIARLVGVLREWAYRNFREEEPRPDSFLERFRGPELHTVTTQQGDGKGDKDGEGKGTKKKFELFVLDPAGDWYYRWLFLIALPVLYNWCLLVARACFSDLQKGYYIVWLVLDYVSDVVYIADLFIRLRTGFLEQGLLVKDTKKLRDNYIHTMQFKLDVASIIPTDLIYFAVGIHNPEVRFNRLLHFARMFEFFDRTETRTSYPNIFRISNLILYILIIIHWNACIYYAISKSIGFGVDTWVYPNITDPEYGYLSREYIYCLYWSTLTLTTIGETPPPVKDEEYLFVIFDFLIGVLIFATIVGNVGSMISNMNATRAEFQAKIDAVKHYMQFRKVSKEMEAKVIRWFDYLWTNKKSVDEREVLKNLPAKLRAEIAINVHLSTLKKVRIFQDCEAGLLVELVLKLRPQVFSPGDYICRKGDIGKEMYIIKEGKLAVVADDGVTQYALLSAGSCFGEISILNIKGSKMGNRRVANIRSLGYSDLFCLSKDDLMEAVTEYPDAKRVLEERGREILMKEGLLDENEVAASMEVDVQEKLEQLETNMDTLYTRFARLLAEYTGAQQKLKQRITVLETKMKQNNEDDSLSDGMNSPEPPAEKP
modifications: Bovine
B4: T537S: known bovine α3 CNG channel subunit in which threonine 537 is replaced with serine (protein, UniProt Q03041 1-663, looked up, variant T537S)
Cyclic nucleotide-gated …: MTEKANGVKSSPANNHNHHAPPAIKASGKDDHRASSRPQSAAADDTSSELQQLAEMDAPQQRRGGFRRIARLVGVLREWAYRNFREEEPRPDSFLERFRGPELHTVTTQQGDGKGDKDGEGKGTKKKFELFVLDPAGDWYYRWLFLIALPVLYNWCLLVARACFSDLQKGYYIVWLVLDYVSDVVYIADLFIRLRTGFLEQGLLVKDTKKLRDNYIHTMQFKLDVASIIPTDLIYFAVGIHNPEVRFNRLLHFARMFEFFDRTETRTSYPNIFRISNLILYILIIIHWNACIYYAISKSIGFGVDTWVYPNITDPEYGYLSREYIYCLYWSTLTLTTIGETPPPVKDEEYLFVIFDFLIGVLIFATIVGNVGSMISNMNATRAEFQAKIDAVKHYMQFRKVSKEMEAKVIRWFDYLWTNKKSVDEREVLKNLPAKLRAEIAINVHLSTLKKVRIFQDCEAGLLVELVLKLRPQVFSPGDYICRKGDIGKEMYIIKEGKLAVVADDGVTQYALLSAGSCFGEISILNIKGSKMGNRRSANIRSLGYSDLFCLSKDDLMEAVTEYPDAKRVLEERGREILMKEGLLDENEVAASMEVDVQEKLEQLETNMDTLYTRFARLLAEYTGAQQKLKQRITVLETKMKQNNEDDSLSDGMNSPEPPAEKP

Key:
[1] = target: Drosophila dopamine receptor (Drosophila melanogaster, UniProt P41596); conditions: dopamine 25-600 nM, FIG. 5A
Chain of Drosophila dopamine receptor (P41596 20-511): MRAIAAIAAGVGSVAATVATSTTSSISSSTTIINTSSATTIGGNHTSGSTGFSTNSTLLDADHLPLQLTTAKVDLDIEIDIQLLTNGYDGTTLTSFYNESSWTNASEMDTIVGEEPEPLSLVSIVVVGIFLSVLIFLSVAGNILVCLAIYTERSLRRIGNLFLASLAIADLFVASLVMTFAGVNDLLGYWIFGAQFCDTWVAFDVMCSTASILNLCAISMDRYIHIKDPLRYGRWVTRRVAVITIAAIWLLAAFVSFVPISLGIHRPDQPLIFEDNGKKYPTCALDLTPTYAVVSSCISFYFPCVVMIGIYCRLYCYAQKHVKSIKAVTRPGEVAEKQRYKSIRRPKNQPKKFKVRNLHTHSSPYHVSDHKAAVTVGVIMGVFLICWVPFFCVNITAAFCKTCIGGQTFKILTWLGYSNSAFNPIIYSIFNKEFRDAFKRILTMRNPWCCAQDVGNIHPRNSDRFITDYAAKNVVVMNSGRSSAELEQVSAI
Description: On the day after transfection, the cells were seeded into a multiwell plate with 96 wells. The cell density per well was 2×10^4 cells.
The fluorimetric measurements of intracellular Ca^2+ concentrations were carried out in multiwell plates with 96 wells (FIG. 5A-5G). The cells were loaded with the Ca^2+-sensitive fluorescent dye Fluo-4 one hour before the measurement. The loading solution contained 120 mM of NaCl, 3 mM of KCl, 50 mM of glucose, 10 mM of Hepes (pH 7.4), 3 mM of MgCl2 and 4 μm of Fluo4-AM (molecular probes). The measuring solution contained 120 mM of NaCl, 3 mM of KCl, 50 mM of glucose, 10 mM of Hepes (pH 7.4) and 3 mM of CaCl2. The time course of the change in fluorescence intensity after application of agonists, antagonists, enzyme activators or enzyme inhibitors was registered using a fluorescence reader (FLUOstar, BMG-Labtechnologies). The excitation wavelength was 485 nm. The emission wavelength was 520 nm.

[2] = test system: homooligomeric bovine α3 CNG channels; test: Patch clamp electrophysiology of inside-out patches: activation of heterologously expressed CNG channels by cAMP and cGMP; type: biochemical; conditions: for Hill coefficient n, cAMP / Hill coefficient n, cAMP, averaged / Hill coefficient n, cGMP / Hill coefficient n, cGMP, averaged: +100 mV; for Hill coefficient n, cAMP: fit of FIG. 1B / 3B; for Hill coefficient n, cAMP, averaged / Hill coefficient n, cGMP, averaged: normalized Hill equation; for Hill coefficient n, cAMP, averaged: averaged parameters (FIG. 1C / 3C); for Hill coefficient n, cGMP: fit of FIG. 2B / 4B; for Hill coefficient n, cGMP, averaged: averaged parameters (FIG. 2C / 4C); for relative selectivity: times more selective for cAMP: quotient K1/2 cGMP / K1/2 cAMP; for relative selectivity: times more selective for cGMP: quotient of K1/2 values
Excerpt: For this purpose, the corresponding nucleic acids were cloned into the expression vector pcDNA3.1 (Invitrogen) (see Methods). The expression constructs were then used to transform the cells of the human embryonic kidney cell line 293 (HEK293 cells) and the corresponding proteins were functionally expressed therein either transiently or stably (see Methods). The results of the studies are depicted in FIGS. 1-4. FIGS. 1-4 B depict the dependence of the average current on the cAMP concentration and cGMP concentration, respectively, in each case in the form of a dose-response relationship. The results of these measurements were used to calculate the sensitivity of the CNG channels to cAMP and cGMP. […] EMBO J., 13, 5040-5050. For electrophysiological characterization, the cells were transferred to glass slides which had been coated with poly L-lysine, on the day after transfection. The electrophysiological studies were then carried out on the following day. […] The electrophysiological characterization of the genetically modified CNG channels was carried out using the patch clamp technique under voltage clamping conditions. […] inside-out patches were excised from cells which stably expressed genetically modified or wild-type CNG channels. The bath solution containing different concentrations of cyclic nucleotides was used to flow over the membrane patches. Starting from a holding voltage of 0 mV, sudden voltage changes were applied to different test voltages between -100 mV and +100 mV at the patch with a step width of 20 mV. The currents were registered and analyzed using standard methods.

α3-CNG channel = test: Fluorescence-optical Ca2+ measurement: cAMP sensor sensitivity of α3-CNG channel variants after adenosine stimulation; type: cell-based
Excerpt: The excitation wavelength was 485 nm. The emission wavelength was 520 nm.
The extent of the change in intracellular Ca^2+ concentration (fluorescence signal) was plotted as a function of time. […] Cells which stably express the T537S mutant of the α3-CNG channel were also stimulated for comparison.

[3] = maximum stimulation with 25 μm adenosine

| Molecule | speed and extent of the change in Ca2+ concentration [1] | Hill coefficient n, cAMP [2] | Hill coefficient n, cAMP, averaged [2] | Hill coefficient n, cGMP [2] | Hill coefficient n, cGMP, averaged [2] | relative selectivity: times more selective for cAMP [2] | times less sensitive to cGMP in comparison with the T537S mutant ([2]; ratio of K1/2 values) | times less sensitive to cGMP in comparison with the wild type ([2]; ratio of K1/2 values) | times more sensitive to cAMP in comparison with the T537S mutant ([2]; ratio of K1/2 values) | times more sensitive to cAMP in comparison with the wild type ([2]; ratio of K1/2 values) | change in fluorescence signal (intracellular Ca2+) (α3-CNG channel; stimulation with 3 μm adenosine (about half maximum)) | relative selectivity: times more selective for cGMP [2] | change in fluorescence signal (intracellular Ca2+) (α3-CNG channel; [3]) | times less sensitive to cAMP than the T537S mutant ([2]; ratio of K1/2 values) |
| --- | --- | --- | --- | --- | --- | --- | --- | --- | --- | --- | --- | --- | --- | --- |
| NCCc1ccc(O)c(O)c1 [dopamine] | depend on the dopamine concentration |  |  |  |  |  |  |  |  |  |  |  |  |  |
| B1 |  | 2.4 | 2.4 | 2.0 | 1.9 | about 6 times | 21 times | about 9 times | about 5 times | about 30 times | distinct increase in the fluorescence signal |  |  |  |
| B2 |  |  | 2.0 |  | 2.0 |  |  |  |  |  |  | about 50 times | no increase in the fluorescence signal |  |
| B3 |  | 2.2 | 1.5 | 2.2 | 2.1 | about 6 times | about 350 times | about 150 times |  | ~3 times |  |  |  | about 2.5 times |
| B4 |  |  |  |  |  |  |  |  |  |  |  | about 20 times | only a very low increase in the fluorescence signal |  |
